T1: GST-URL1 (ROC8) (Oryza sativa L., UniProt Q69T58 1-710)
T1 sequence: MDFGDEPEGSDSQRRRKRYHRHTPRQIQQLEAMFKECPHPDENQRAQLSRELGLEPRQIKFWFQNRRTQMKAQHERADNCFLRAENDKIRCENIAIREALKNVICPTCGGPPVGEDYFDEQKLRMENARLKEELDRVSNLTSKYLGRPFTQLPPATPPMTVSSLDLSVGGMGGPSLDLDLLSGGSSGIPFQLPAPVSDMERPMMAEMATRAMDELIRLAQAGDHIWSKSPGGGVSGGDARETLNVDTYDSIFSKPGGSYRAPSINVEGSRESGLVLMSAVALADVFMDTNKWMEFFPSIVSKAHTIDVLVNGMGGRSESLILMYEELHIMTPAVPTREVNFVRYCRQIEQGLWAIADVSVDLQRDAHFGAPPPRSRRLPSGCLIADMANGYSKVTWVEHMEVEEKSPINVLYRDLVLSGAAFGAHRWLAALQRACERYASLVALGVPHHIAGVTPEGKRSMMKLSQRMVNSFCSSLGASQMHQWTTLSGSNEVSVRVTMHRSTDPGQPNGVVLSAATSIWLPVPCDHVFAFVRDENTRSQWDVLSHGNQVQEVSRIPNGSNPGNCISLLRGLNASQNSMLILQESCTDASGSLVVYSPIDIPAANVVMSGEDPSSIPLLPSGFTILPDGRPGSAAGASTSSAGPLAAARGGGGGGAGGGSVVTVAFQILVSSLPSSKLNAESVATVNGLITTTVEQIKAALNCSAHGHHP

B1: mACL1 L1-box I (L1 box deleted) (dsDNA)
DNA 1: ACCGACTAATGGCAATATAAAGATATACCATATCCTGTACTAAGCAATAACCTA
DNA 2: TAGGTTATTGCTTAGTACAGGATATGGTATATCTTTATATTGCCATTAGTCGGT
B2: ACL1 L1-box I unlabeled competitor (dsDNA)
DNA 1: CCGACTAATGGCAATATATACGTGCAAAGATACATTTATATACCATATCCTGTACTAAGCAATAACCTA
DNA 2: TAGGTTATTGCTTAGTACAGGATATGGTATATAAATGTATCTTTGCACGTATATATTGCCATTAGTCGG
B3: ACL1 L1-box II unlabeled competitor (dsDNA)
DNA 1: TTATCATAAAAGAAACTATAATATTAACTTATACATTTACATATTTATACTAAATTTTTAAATAAGGCAA
DNA 2: TTGCCTTATTTAAAAATTTAGTATAAATATGTAAATGTATAAGTTAATATTATAGTTTCTTTTATGATAA
B4: mACL1 L1-box II (L1 box deleted) (dsDNA)
DNA 1: TTATCATAAAAGAAACTATAATATTAACTTACATTACTTTAAGGCAA
DNA 2: TTGCCTTAAAGTAATGTAAGTTAATATTATAGTTTCTTTTATGATAA

Assays:
GST-URL1 (ROC8) [1] = biological target: T1, GST-URL1 (ROC8); assay: EMSA; LightShift Chemiluminescent EMSA Kit; buffer, salt, pH and temperature not stated; settings: protein: recombinant; tags: N-terminal GST (pCold-GST); chain copies: 2; label: 3' biotin; blunt
GST-URL1 (ROC8) [2] = biological target: T1, GST-URL1 (ROC8); assay: competition; 100-, 300-, 1000-fold excess vs labeled L1-box I probe; LightShift Chemiluminescent EMSA Kit; buffer, salt, pH and temperature not stated; settings: protein: recombinant; tags: N-terminal GST (pCold-GST); chain copies: 2; blunt
GST-URL1 (ROC8) [3] = biological target: T1, GST-URL1 (ROC8); assay: competition; 100-, 300-, 1000-fold excess vs labeled L1-box II probe; LightShift Chemiluminescent EMSA Kit; buffer, salt, pH and temperature not stated; settings: protein: recombinant; tags: N-terminal GST (pCold-GST); chain copies: 2; blunt

Row | Binder | binding result (GST-URL1 (ROC8) [1]) | other results
1 | B1 | no binding | –
2 | B2 | – | binding result (GST-URL1 (ROC8) [2]): binds
3 | B3 | – | binding result (GST-URL1 (ROC8) [3]): binds
4 | B4 | no binding | –

From paper PMC8133684, “The URL1–ROC5–TPL2 transcriptional repressor complex represses the ACL1 gene to modulate leaf rolling in rice”
